Measured values taken from patent US20100043097A1 (CARNEGIE INSTITUTION OF WASHINGTON, published 2010).

B1: BRI1-GFP (receptor, Arabidopsis thaliana, UniProt O22476 24-1196, looked up)
chain: FQASPSQSLYREIHQLISFKDVLPDKNLLPDWSSNKNPCTFDGVTCRDDKVTSIDLSSKPLNVGFSAVSSSLLSLTGLESLFLSNSHINGSVSGFKCSASLTSLDLSRNSLSGPVTTLTSLGSCSGLKFLNVSSNTLDFPGKVSGGLKLNSLEVLDLSANSISGANVVGWVLSDGCGELKHLAISGNKISGDVDVSRCVNLEFLDVSSNNFSTGIPFLGDCSALQHLDISGNKLSGDFSRAISTCTELKLLNISSNQFVGPIPPLPLKSLQYLSLAENKFTGEIPDFLSGACDTLTGLDLSGNHFYGAVPPFFGSCSLLESLALSSNNFSGELPMDTLLKMRGLKVLDLSFNEFSGELPESLTNLSASLLTLDLSSNNFSGPILPNLCQNPKNTLQELYLQNNGFTGKIPPTLSNCSELVSLHLSFNYLSGTIPSSLGSLSKLRDLKLWLNMLEGEIPQELMYVKTLETLILDFNDLTGEIPSGLSNCTNLNWISLSNNRLTGEIPKWIGRLENLAILKLSNNSFSGNIPAELGDCRSLIWLDLNTNLFNGTIPAAMFKQSGKIAANFIAGKRYVYIKNDGMKKECHGAGNLLEFQGIRSEQLNRLSTRNPCNITSRVYGGHTSPTFDNNGSMMFLDMSYNMLSGYIPKEIGSMPYLFILNLGHNDISGSIPDEVGDLRGLNILDLSSNKLDGRIPQAMSALTMLTEIDLSNNNLSGPIPEMGQFETFPPAKFLNNPGLCGYPLPRCDPSNADGYAHHQRSHGRRPASLAGSVAMGLLFSFVCIFGLILVGREMRKRRRKKEAELEMYAEGHGNSGDRTANNTNWKLTGVKEALSINLAAFEKPLRKLTFADLLQATNGFHNDSLIGSGGFGDVYKAILKDGSAVAIKKLIHVSGQGDREFMAEMETIGKIKHRNLVPLLGYCKVGDERLLVYEFMKYGSLEDVLHDPKKAGVKLNWSTRRKIAIGSARGLAFLHHNCSPHIIHRDMKSSNVLLDENLEARVSDFGMARLMSAMDTHLSVSTLAGTPGYVPPEYYQSFRCSTKGDVYSYGVVLLELLTGKRPTDSPDFGDNNLVGWVKQHAKLRISDVFDPELMKEDPALEIELLQHLKVAVACLDDRAWRRPTMVQVMAMFKEIQAGSGIDSQSTIRSIEDGGFSTIEMVDMSIKEVPEGKL
notes: Expressed in transgenic Arabidopsis; solubilised microsomal proteins used for co-immunoprecipitation; also called BRI1-GFP protein expressed from the BRI1 promoter; not shown: GFP tag

Legend:
Protein A bead alone = biological target: T1, Protein A bead alone (UniProt P38507 37-477); experiment: immunoprecipitation control from microsomal proteins, anti-GFP immunoblot
T1 construct: IP control without antibody; also called Protein A Sepharose beads
Experimental: Microsomal proteins (Input, lane 1) from det2 mutant plants expressing BRI1-GFP under the control of BRI1 promoter were immunoprecipitated (IP) using polyclonal anti-BRK1 antibodies affinity-purified using an BRK1 antigen column (lane 3). Protein A bead alone was used as IP control (lane 2). Immunoblots were probed using anti-GFP antibodies. BRI1-GFP can be pulled down by anti-BRI1 antibody but not by protein A bead.
All procedures were performed at 4° C. Rosette leaves of 3-week-old Arabidopsis plants were homogenized with mortar and pestle in the grinding buffer (20 mM HEPES, pH 7.5, 40 mM KCl, 250 mM sucrose, 5 mM MgCl₂ and protein inhibitors) at a ratio of 3 mL buffer per gram of tissue. Homogenate was filtered through 2 layers of Miracloth (CalBiochem, La Jolla, Calif.), and centrifuged at 10,000 g for 10 minutes. The supernatant was further centrifuged at 100,000 g for 60 min to pellet the microsomal fraction. Microsomes were re-suspended in 0.5 mL grinding buffer and sonicated for 10 sec. Triton X-100 was added to a final concentration of 1%. After mixing, the extracts were centrifuged at 20,000 g for 10 min. Supernatant was diluted 5 times with grinding buffer to reduce Triton X-100 to 0.2%. […] Samples were analyzed by SDS-PAGE and immunoblotting.

BRI1-GFP = biological target: B1; experiment: co-immunoprecipitation with anti-GFP antibodies after 100 nM brassinolide for 30 min, anti-myc immunoblot (FIG. 2D)

Row | Binder | binding result (Protein A bead alone) | amount of co-immunoprecipitated BRK1-myc after BR treatment relative to the untreated sample (BRI1-GFP)
1 | B1 | no binding | –
2 | BRK1-myc (enzyme, Full-length BRK1 with C-terminal 4x Myc tag, expressed from the 35S promoter in Arabidopsis; also called BRK1-myc protein; not shown: 4x Myc tag of the pGWB17 vector) GCCQSLFSGDNPLGKDGVQPQPLSQNNHGGATTADNGGSGGASGVGGGGGGGGIPSFSEFSFADLKAATNNFSSDNIVSESGEKAPNLVYKGRLQNRRWIAVKKFTKMAWPEPKQFAEEAWGVGKLRHNRLANLIGYCCDGDERLLVAEFMPNDTLAKHLFHWENQTIEWAMRLRVGYYIAEALDYCSTEGRPLYHDLNAYRVLFDEDGDPRLSCFGLMKNSRDGKSYSTNLAYTPPEYLRNGRVTPESVTYSFGTVLLDLLSGKHIPPSHALDMIRGKNIILLMDSHLEGKFSTEEATVVVELASQCLQYEPRERPNTKDLVATLAPLQTKSDVPSYVMLGIKKQEEAPSTPQRPLSPLGEACSRMDLTAIHQILVMTHYRDDEGTNELSFQEWTQQMKDMLDARKRGDQSFREKDFKTAIDCYSQFIDVGTMVSPTVFGRRSLCYLLCDQPDAALRDAMQAQCVYPDWPTAFYMQSVALAKLNMNTDAADMLNEAAQLEEKRQRGGRGS | – | 46 % of the untreated sample
